The values that follow come from patent publication US20230212275.

Data set [1] has as its target C3b (Complement Technology, Inc, A113) (UniProt P01024).
In data set [2] the target is C3b (Complement Technology, Inc, A113), P01024.
Sequence of C3b (Complement Technology, Inc, A113), P01024 (P01024 whole entry, looked up): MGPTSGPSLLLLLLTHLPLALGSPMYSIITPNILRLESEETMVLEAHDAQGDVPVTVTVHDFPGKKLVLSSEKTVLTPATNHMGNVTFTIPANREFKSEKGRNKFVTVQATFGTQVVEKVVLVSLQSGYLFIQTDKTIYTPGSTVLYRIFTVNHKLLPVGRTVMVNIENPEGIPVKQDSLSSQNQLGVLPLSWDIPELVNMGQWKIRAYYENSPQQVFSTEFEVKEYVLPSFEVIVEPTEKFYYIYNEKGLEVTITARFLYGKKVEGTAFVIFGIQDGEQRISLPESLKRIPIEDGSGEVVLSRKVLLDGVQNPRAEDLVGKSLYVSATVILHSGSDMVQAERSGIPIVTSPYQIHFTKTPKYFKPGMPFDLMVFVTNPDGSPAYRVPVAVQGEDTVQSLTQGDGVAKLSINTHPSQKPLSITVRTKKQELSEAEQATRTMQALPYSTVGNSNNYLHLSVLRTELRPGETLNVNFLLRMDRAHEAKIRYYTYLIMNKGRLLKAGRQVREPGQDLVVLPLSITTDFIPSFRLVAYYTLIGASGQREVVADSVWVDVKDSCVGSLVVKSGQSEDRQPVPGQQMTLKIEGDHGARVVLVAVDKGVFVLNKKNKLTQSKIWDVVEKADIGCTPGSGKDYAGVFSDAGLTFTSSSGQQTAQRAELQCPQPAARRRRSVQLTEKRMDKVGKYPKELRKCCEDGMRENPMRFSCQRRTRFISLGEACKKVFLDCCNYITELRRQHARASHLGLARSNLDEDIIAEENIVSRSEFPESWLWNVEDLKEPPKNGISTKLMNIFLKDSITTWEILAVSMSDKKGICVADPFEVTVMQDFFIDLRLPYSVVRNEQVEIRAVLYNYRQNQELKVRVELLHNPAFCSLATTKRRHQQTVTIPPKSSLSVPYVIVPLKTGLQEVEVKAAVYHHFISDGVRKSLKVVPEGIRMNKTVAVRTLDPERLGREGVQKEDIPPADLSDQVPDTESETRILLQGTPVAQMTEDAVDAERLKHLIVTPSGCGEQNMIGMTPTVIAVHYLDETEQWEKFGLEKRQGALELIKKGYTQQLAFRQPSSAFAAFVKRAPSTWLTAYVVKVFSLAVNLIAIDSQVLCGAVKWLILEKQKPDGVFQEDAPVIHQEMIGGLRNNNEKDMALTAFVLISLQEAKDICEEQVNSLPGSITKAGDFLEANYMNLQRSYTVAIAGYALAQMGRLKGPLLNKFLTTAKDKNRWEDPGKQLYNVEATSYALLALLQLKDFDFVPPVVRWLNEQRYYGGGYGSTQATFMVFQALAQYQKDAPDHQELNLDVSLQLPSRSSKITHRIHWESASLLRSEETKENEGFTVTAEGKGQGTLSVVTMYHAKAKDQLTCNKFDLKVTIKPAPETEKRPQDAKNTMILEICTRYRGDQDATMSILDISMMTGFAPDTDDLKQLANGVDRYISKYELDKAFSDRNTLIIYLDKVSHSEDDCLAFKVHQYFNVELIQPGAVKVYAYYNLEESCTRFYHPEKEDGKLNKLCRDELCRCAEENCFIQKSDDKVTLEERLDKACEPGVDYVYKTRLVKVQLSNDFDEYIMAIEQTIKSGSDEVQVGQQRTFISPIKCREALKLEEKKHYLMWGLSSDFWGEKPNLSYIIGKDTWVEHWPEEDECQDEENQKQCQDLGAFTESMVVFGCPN

As to “CFI secreted by HEK293 cells transduced with AAV2 bicistronic vector RC289 (coAflibercept-F2A-coCFI)”, the “C3b cleavage assay, iC3b ELISA” value in data set [1] is “CFI and FHL1 expressed from all bicistronic vectors is functional and can facilitate breakdown of C3b to iC3b”.
Take “CFI secreted by HEK293 cells transduced with AAV2 bicistronic vector RC313 (coCFI-F2A-coAflibercept)”: the “C3b cleavage assay, iC3b ELISA” value in data set [1] was “CFI and FHL1 expressed from all bicistronic vectors is functional and can facilitate breakdown of C3b to iC3b”.

B1: recombinant CFI (Complement Technology, Inc, A138) (protein)
chain: KVTYTSQEDLVEKKCLAKKYTHLSCDKVFCQPWQRCIEGTCVCKLPYQCPKNGTAVCATNRRSFPTYCQQKSLECLHPGTKFLNNGTCTAEGKFSVSLKHGNTDSEGIVEVKLVDQDKTMFICKSSWSMREANVACLDLGFQQGADTQRRFKLSDLSINSTECLHVHCRGLETSLAECTFTKRRTMGYQDFADVVCYTQKADSPMDDFFQCVNGKYISQMKACDGINDCGDQSDELCCKACQGKGFHCKSGVCIPSQYQCNGEVDCITGEDEVGCAGFASVTQEETEILTADMDAERRRIKSLLPKLSCGVKNRMHIRRKRIVGGKRAQLGDLPWQVAIKDASGITCGGIYIGGCWILTAAHCLRASKTHRYQIWTTVVDWIHPDLKRIVIEYVDRIIFHENYNAGTYQNDIALIEMKKDGNKKDCELPRSIPACVPWSPYLFQPNDTCIVSGWGREKDNERVFSLQWGEVKLISNCSKFYGNRFYEKEMECAGTYDGSIDACKGDSGGPLVCMDANNVTYVWGVVSWGENCGKPEFPGVYTKVANYFDWISYHVGRPFISQYNV
For B1, the “C3b cleavage assay, iC3b ELISA” value in data set [2] is “C3b incubated with recombinant CFI and FHL1 served as a positive control; C3b breakdown requires the presence of CFI and FHL1”.
